Test results taken from paper PMC12435805 (Nature Chemical Biology, 2025).
Read-outs that look alike come from different tables or passages of the source.

B2: truncated RECQL5 protein (11–453) (domain or fragment, UniProt O94762 11-453, looked up)
chain: DPERRVRSTLKKVFGFDSFKTPLQESATMAVVKGNKDVFVCMPTGAGKSLCYQLPALLAKGITIVVSPLIALIQDQVDHLLTLKVRVSSLNSKLSAQERKELLADLEREKPQTKILYITPEMAASSSFQPTLNSLVSRHLLSYLVVDEAHCVSQWGHDFRPDYLRLGALRSRLGHAPCVALTATATPQVQEDVFAALHLKKPVAIFKTPCFRANLFYDVQFKELISDPYGNLKDFCLKALGQEADKGLSGCGIVYCRTREACEQLAIELSCRGVNAKAYHAGLKASERTLVQNDWMEEKVPVIVATISFGMGVDKANVRFVAHWNIAKSMAGYYQESGRAGRDGKPSWCRLYYSRNDRDQVSFLIRKEVAKLQEKRGNKASDKATIMAFDALVTFCEELGCRHAAIAKYFGDALPACAKGCDHCQNPTAVRRRLEALERSSSW
notes: also called RECQ5; DNA helicase RECQL5

Experiments:
[1] = target: B2; assay: BLI; conditions: both partners purified
[2] = target: T1, anti-RECQL5 homoDiGb5-006; assay: BLI; conditions: both partners purified
T1 construct: also called homoDiGb Gb5-006

[3] = target: B2
[4] = target: hen egg white lysozyme (Gallus gallus, UniProt P00698)
Sequence of hen egg white lysozyme (P00698 19-147): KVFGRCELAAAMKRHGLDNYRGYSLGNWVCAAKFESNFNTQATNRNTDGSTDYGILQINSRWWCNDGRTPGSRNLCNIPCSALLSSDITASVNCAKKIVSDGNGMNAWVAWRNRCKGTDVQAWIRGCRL

[5] = target: T2, superfolder GFP (Aequorea victoria, engineered …, stabilised); assay: BLI; conditions: both partners purified
T2 construct: also called sfGFP
T2 sequence (P42212 other isoform, or with tags, fused parts or gaps, change not shown): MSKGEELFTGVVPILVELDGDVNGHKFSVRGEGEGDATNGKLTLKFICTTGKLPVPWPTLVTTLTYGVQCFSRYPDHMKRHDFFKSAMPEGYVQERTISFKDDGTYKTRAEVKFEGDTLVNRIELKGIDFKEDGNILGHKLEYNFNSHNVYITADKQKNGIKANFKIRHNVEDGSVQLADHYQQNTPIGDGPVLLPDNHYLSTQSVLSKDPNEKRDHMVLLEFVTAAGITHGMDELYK

[6] = target: SARS-CoV-2 receptor-binding domain (RBD) (SARS-CoV-2, ancestral strain assumed, UniProt P0DTC2, glycans removed; complex for cryo-EM PEGylated with NHS-PEG4-azide)

B1: anti-RECQL5 wild-type nanobody (VHH)
VHH: QVQLVESGGGLVQAGGSLRLSCAASGSIFSINRMGWYRQAPGKQRELVAAITSGGSTNYADSVKGRFTISRDNAKNTVYLQMNSLKPEDTAIYYCEAYGTYTLAPTGEGEYDDYWGQGTQVTVS
notes: also called RECQL5 nanobody; anti-RECQL5 nanobody
For B1, the Kd [1] was 1200 nM.

B2 gave a Kd [2] of 23400 nM.

B3: Nb5-006 (VHH)
VHH: VQLVENSGGGLVQAGGSLRLSCAASGSIFSINRMTWYRQAPGKEREWVAAITSGGSTNYADSVKGRFTISRDNAENTVYLQMNSLKPEDTAVYYCEAYGTYTLAPTGEGEYDDYWGQGTQVTVS
Binder B3 has a Kd [3] of 1200 nM.

B4: anti-RECQL5 monomeric Gb5-006 (VHH)
VHH: QVQLVENGGGCVKAGGSLRLSCAASGSIFSINRMTWYRQAPGKEREWVAAITSGGSTNYADSVKGRFTISRDNAENTVYLQMNSLKPEDTAVYYCEAYGTYTLAPTGEGEYDDYWGQGTQVMVS
notes: also called G5-006; Gb equivalent
For B4, the Kd [1] was 9000 nM.

B5: GbLysozyme (VHH)
VHH: DVQLVENGGGCVKAGGSLRLSCAASGSTDSIEYMTWFRQAPGKAREGVAALYTHTGNTYYTDSVKGRFTISQDKAKNMAYLRMDSVKSEDTAIYTCGATRKYVPVRFALDQSSYDYWGQGTQVMVSS
B5: binds [4].

B6: anti-sfGFP monomeric GbEnhancer (VHH)
VHH: QVQLVENGGACVKPGGSLRLSCAASGFPVNRYSMRWYRQAPGKEREWVAGMSSAGDRSSYEDSVKGRFTISRDDARNTVYLQMNSLKPEDTAVYYCNVNVGFEYWGQGTQVMVS
notes: also called GbGFP; sfGFP Gb
B6 was tested, and the Kd [5] was 5 nM.

B7: GbRBD1 (VHH)
VHH: QVQLVENGGGCVKAGGSLRLSCAVSGRTFSTAAMGWFRQAPGKEREFVAAIRWSGGSAYYADSVKGRFTISRDKAKNTVYLQMNSLKYEDTAVYYCAQTRVTRSLLSDYATWPYDYWGQGTQVMVS
B7: binds [6].
